Results as given in patent US8790905B2, “Fructosyl peptide oxidase” (Kyowa Medex Co., Ltd, priority 2008, dated 2014).
Changes are numbered by the printed parent chain.

Legend:
Type in all cases: biochemical, Emericella nidulans KY125
[1] = substrate: CC(C)[C@H](NCC1(O)OC[C@@H](O)[C@@H](O)[C@@H]1O)C(=O)N[C@@H](Cc1c[nH]cn1)C(=O)O; experiment: Km values of the fructosyl peptide oxidase FPOX-9 towards each type of substrate; settings: other: Tris buffer (pH 7.5), 37° C.
Description: (§1) Substrate specificity of the novel FPOX-9 obtained in Example 2 to glycated peptides and/or glycated amino acids were measured using the following Reagent 1 to Reagent 3.
(§2) Herein, the FPOX-9 solution used was the one prepared in Example 3.
(§3) As substrates, glycated peptide α-FVH as well as glycated amino acids ε-FK and α-FV were used.
(§4) α-FVH solutions and α-FV solutions were prepared using Tris buffer to obtain each of the following concentrations in Reagent 3: 0, 0.05, 0.1, 0.5, 1, 2, 5, and 10 mmol/L. ε-FK solutions were prepared using Tris buffer to obtain each of the following concentrations in Reagent 3: 0, 1, 2, 5, 10, 20, 40, 50, 80, and 100 mmol/L.
(§5) 170 μL of Reagent 2 was added to 10 μL of Reagent 1, and after the reaction at 37° C. for five minutes, 20 μL of Reagent 3 was added, and the reaction was further continued at 37° C. for five minutes, a total of ten minutes. The absorbance at 546 nm (main wavelength)/800 nm (sub-wavelength) for 0 mmol/L at 5.4 minutes after starting the reaction was defined as A0′ (Abs), and the absorbance at 546 nm (main wavelength)/800 nm (sub-wavelength) for each substrate concentration at 5.4 minutes after starting the reaction was defined as A0^x (Abs), and ΔA0 was calculated according to Equation (I). (Mathematical Expression 1) ΔA0=A0^x−A0′(Abs) (I)
(§6) The absorbance at 546 nm (main wavelength)/800 nm (sub-wavelength) for 0 mmol/L at 6.6 minutes after starting the reaction was defined as As′ (Abs), and the absorbance at 546 nm (main wavelength)/800 nm (sub-wavelength) for each substrate concentration at 6.6 minutes after starting the reaction was defined as As^x (Abs), and ΔAs was calculated according to Equation (II). (Mathematical Expression 2) ΔAs=As^x−As′(Abs) (II)
(§7) The enzyme activity (U/mL) for each substrate concentration was calculated by substituting the obtained ΔA0 and ΔAs total amount of reaction solution (0.2 mL), molar extinction coefficient of TOOS (39,200), reaction time (1.2 minutes), and the light path length of the reaction cuvette (0.5 cm) into Equation (III). […]

[2] = substrate: CC(C)[C@H](NCC1(O)OC[C@@H](O)[C@@H](O)[C@@H]1O)C(=O)O; experiment: as above; settings: other: Tris buffer (pH 7.5), 37° C.
Description: as §1, §2, §3, §4, §5, §6, §7

[3] = substrate: N[C@@H](CCCCNCC1(O)OC[C@@H](O)[C@@H](O)[C@@H]1O)C(=O)O; experiment: as above; settings: other: Tris buffer (pH 7.5), 37° C.
Description: as §1, §2, §3, §4, §5, §6, §7

[4] = substrate: CC(C)[C@H](NCC1(O)OC[C@@H](O)[C@@H](O)[C@@H]1O)C(=O)N[C@@H](Cc1c[nH]cn1)C(=O)O; experiment: Km values of the fructosyl peptide oxidase FPOX-15 towards each type of substrate; settings: 37° C.
Description: (§8) The substrate specificity of FPOX-15 obtained in Example 2 to glycated peptides and/or glycated amino acids was measured using the following Reagent 1 to Reagent 3.
(§9) Herein, for the FPOX-15 solution, a solution produced by four-fold dilution of the solution obtained in Example 3 was used.
as §3
(§10) α-FVH solutions and α-FV solutions were prepared using distilled water to obtain the following concentrations in Reagent 3: 0, 2, 2.5, 3, and 3.66 mmol/L. ε-FK solution was prepared using distilled water to obtain the following concentrations in Reagent 3: 0, 20, 30, 40, and 50 mmol/L.
as §5, with “150” for “170”, “5” for “10”, “wavelength)/700” for “wavelength)/800”
as §6, with “wavelength)/700” for “wavelength)/800”
(§11) The enzyme activity (U/mL) for each substrate concentration was calculated by substituting the obtained ΔA0 and ΔAs, total amount of reaction solution (0.2 mL), molar extinction coefficient of EMSE (33,800), reaction time (1.2 minutes), and the light path length of the reaction cuvette (0.5 cm) into Equation (III). (Mathematical Expression 3) Enzyme activity(U/mL)={(ΔAs−ΔA0)×total amount of reaction solution(mL)}/{molar extinction coefficient ε/1000×amount of enzyme solution(mL)×0.5×reaction time(min)×light path length(cm)} (III)
(§12) For each of the substrates α-FVH, ε-FK, and α-FV, a plot was produced with substrate concentration (mmol/L) on the horizontal axis and the corresponding enzyme activity (U/mL) on the vertical axis, and the substrate concentration corresponding to ½ of the maximum enzyme activity was calculated as the Km value (Michaelis constant).

[5] = substrate: CC(C)[C@H](NCC1(O)OC[C@@H](O)[C@@H](O)[C@@H]1O)C(=O)O; experiment: as above; settings: 37° C.
Description: as §8, §9, §3, §10
as §5, with “150” for “170”, “5” for “10”, “wavelength)/700” for “wavelength)/800”
as §6, with “wavelength)/700” for “wavelength)/800”
as §11, §12

[6] = substrate: N[C@@H](CCCCNCC1(O)OC[C@@H](O)[C@@H](O)[C@@H]1O)C(=O)O; experiment: as above; settings: 37° C.
Description: as §8, §9, §3, §10
as §5, with “150” for “170”, “5” for “10”, “wavelength)/700” for “wavelength)/800”
as §6, with “wavelength)/700” for “wavelength)/800”
as §11, §12

[7] = other: pH 6.0, sodium dihydrogen phosphate, pH 6.0
[8] = other: pH 7.0, sodium dihydrogen phosphate, pH 7.0
[9] = other: pH 8.0, sodium dihydrogen phosphate, pH 8.0

B1: Emericella nidulans KY125 fructosyl peptide oxidase variant FPOX-9 (Ser71Tyr, Ile94Met, Glu104Lys, Lys109Arg, Phe269Ile), SEQ ID NO: 1 (Aspergillus nidulans; … (protein)
chain: MAPRANTKIIVVGGGGTMGSSTALHLLRAGYTPSNITVLDTYPIPSAQSAGYDLNKIMSIRLRNKPDLQLYLEALDMWKNDPLFKPFFHNVGQMDVSSTEEGIKGLRMRYQSLLDAGIGLEKTNFLLESEDEILAKAPHFTREQIKGWKGLFCGDGGWLAAAKAINAIGQFLKEQGVKFGFGGAGTFKKPLFADADEKTCIGVETVDGTKYYADKVVLAAGAWSSTLVDLEEQCVSKAWVFAHIQLTPAEAAAYKNTPVIYDGDYGFFIEPNENGIIKVCDEFPGFTHFKMHQPYGSPVPKPISVPRSHAKHPTDTYPHASEVTIKKAINRFLPRFNDKELFNRAMCWCTDTADANLLVCEHPRWKGFYLATGDSGHSFKLLPNIGKHVVELLEGRLESVFKDAWRWRPGSGDALKSRRAAPAKDLADMPGWRNEAKM
- Km [1]: 500 µM
- Km [2]: 600 µM
- Km [3]: 4000 µM

B2: Emericella nidulans KY125 fructosyl peptide oxidase variant FPOX-15 (FPOX-9 with Met58Phe, Ser59Gly, Gly105Lys, Gly183Glu, Asn272Asp, Pro302Leu), SEQ ID NO: 3 … (protein)
chain: B1 chain with M58F, S59G, G105K, G183E, N272D, P302L
- Km [4, 7]: 400 µM
- Km [4, 8]: 500 µM
- Km [4, 9]: 800 µM
- Km [5, 7]: 200 µM
- Km [5, 8]: 300 µM
- Km [5, 9]: 300 µM
- Km [6, 7]: 23200 µM
- Km [6, 8]: 19200 µM
- Km [6, 9]: 9600 µM
